Laboratory results taken from patent US7211424B1, “Mammalian Subtilisin/kexin isozyme SKI-1: a proprotein convertase with a unique cleavage specificity” (Institut de Recherches Cliniques de Montreal, priority 1999, dated 2007).
Like-named read-outs stand apart in the source and are kept apart here. Where no end group is shown, it is not given here.

Legend:
[1] = target: T1, BTMD-SKI-1 (Homo sapiens, UniProt Q14703); experiment: pH optimum and calcium dependence of peptide cleavage by BTMD-SKI-1; type: biochemical
T1 sequence (Q14703 187-997 limits assumed): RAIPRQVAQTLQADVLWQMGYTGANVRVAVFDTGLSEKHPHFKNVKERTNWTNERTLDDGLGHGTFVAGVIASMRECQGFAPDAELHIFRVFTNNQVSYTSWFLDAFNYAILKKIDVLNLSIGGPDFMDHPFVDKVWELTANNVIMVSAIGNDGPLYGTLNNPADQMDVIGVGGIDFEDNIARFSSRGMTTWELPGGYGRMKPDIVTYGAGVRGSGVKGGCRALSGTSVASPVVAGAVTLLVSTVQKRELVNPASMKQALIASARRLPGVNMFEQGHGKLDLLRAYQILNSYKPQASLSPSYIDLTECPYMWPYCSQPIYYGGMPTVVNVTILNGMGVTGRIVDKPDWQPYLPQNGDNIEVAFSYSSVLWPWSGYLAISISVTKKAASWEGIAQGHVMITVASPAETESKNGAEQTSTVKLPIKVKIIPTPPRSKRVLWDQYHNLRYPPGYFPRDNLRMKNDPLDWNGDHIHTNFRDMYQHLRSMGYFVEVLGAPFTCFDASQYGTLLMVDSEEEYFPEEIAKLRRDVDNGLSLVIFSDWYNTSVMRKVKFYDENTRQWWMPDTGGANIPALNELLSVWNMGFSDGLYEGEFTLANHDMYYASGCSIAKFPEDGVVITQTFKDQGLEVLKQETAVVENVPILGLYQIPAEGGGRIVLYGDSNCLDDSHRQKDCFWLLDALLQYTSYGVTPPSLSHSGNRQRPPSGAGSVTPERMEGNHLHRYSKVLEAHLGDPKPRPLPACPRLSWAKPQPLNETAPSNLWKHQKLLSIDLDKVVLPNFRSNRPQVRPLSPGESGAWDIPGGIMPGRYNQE
T1 sequence (Q14703 17-137 partner limits assumed): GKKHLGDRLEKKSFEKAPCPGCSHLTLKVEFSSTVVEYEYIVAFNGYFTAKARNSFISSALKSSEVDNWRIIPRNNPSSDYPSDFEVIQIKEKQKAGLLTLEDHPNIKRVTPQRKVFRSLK
Procedure: pH Optimum, Calcium-Dependence and Inhibitor Profile—The protocols used were essentially the same as reported previously (13). Stocks of the buffer described above were adjusted to pH 5.0–8.5 at 0.5 unit increments by addition of either acetic acid or sodium hydroxide. In order to investigate the calcium requirement of SKI-1, increasing concentrations of Ca^2+-acetate were used ranging from 0 to 10 mM.

[2] = target: T2, SKI-1 (Homo sapiens, UniProt Q14703); type: cell-based; set-up: The VV recombinant of full-length hSKI-1 has been described (10); expressed in transfected cells; host or cells: COS-7 cells co-infected with vv:BDNF and vv:SKI-1 (with vv:WT, vv:PIT or vv:PDX)
T2 sequence (Q14703 187-1052): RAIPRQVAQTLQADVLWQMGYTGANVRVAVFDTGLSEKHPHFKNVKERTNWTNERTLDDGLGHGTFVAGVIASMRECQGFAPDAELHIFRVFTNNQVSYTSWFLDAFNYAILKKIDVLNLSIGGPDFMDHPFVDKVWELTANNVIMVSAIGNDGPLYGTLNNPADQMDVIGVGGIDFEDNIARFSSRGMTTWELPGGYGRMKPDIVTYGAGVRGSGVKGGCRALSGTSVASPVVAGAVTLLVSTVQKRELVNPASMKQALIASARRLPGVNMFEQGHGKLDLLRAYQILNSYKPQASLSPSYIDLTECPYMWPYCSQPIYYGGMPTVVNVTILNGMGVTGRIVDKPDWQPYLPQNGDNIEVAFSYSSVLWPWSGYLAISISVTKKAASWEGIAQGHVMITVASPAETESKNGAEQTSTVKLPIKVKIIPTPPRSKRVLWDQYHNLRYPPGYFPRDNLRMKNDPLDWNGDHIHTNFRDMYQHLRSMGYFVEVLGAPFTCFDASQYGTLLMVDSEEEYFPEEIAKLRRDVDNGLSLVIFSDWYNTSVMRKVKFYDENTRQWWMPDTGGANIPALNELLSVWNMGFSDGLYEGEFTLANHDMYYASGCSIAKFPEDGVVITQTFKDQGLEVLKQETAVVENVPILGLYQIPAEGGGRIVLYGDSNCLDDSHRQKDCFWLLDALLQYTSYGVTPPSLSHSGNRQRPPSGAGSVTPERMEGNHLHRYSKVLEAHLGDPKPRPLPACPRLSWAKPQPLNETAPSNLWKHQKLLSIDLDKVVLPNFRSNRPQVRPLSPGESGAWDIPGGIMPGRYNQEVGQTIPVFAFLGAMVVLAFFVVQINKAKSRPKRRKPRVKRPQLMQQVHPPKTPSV

[3] = system: endogenous furin-like enzyme(s); experiment: Ex vivo proBDNF processing in COS-7 cells: 14 kDa BDNF; type: cell-based
[4] = target: T3, peptide II, hSREBP-2(504-530)
T3 chain: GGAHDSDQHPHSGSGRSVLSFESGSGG

[5] = target: T4, peptide VII, hSKI-1 (187-201)
T4 chain: RAIPRQVAQTLQADV

[6] = target: cystatin
[7] = target: T5, peptide VI, hSKI-1 (156-172)
T5 chain: WQSSRPLRRASLSLGSG

[8] = target: T6, peptide IX, hSKI-1 (128-142)
T6 chain: PQRKVFRSLKYAESD

[9] = target: T7, peptide IV, hSKI-1 (174-188+LE)
T7 chain: WHATGRHSSRRLLRALE

[10] = target: T8, peptide V, hSKI-1 (182-188+LE)
T8 chain: SRRLLRALE

[11] = target: T9, peptide VIII, hSKI-1 (128-136)
T9 chain: PQRKVFRSL

[12] = target: T10, peptide III, hSKI-1(174-191)
T10 chain: WHATGRHSSRRLLRAIPR

[13] = target: T11, peptide I, hproBDNF(50-63)
T11 chain: KAGSRGLTSLADTF

[14] = target: soya bean trypsin inhibitor
[15] = COS-7 cells co-expressing proBDNF and SKI-1

## KAGSRGLTSLADTF [I]
[1]; at pH 5.0
  activity retained: about 30%
[1]; at pH 8.5
  activity retained: ~55%

## α1-antitrypsin Portland [α1-PDX]
[2]
  level of the 28 kDa BDNF product: neither α1-PIT nor α1-PDX affect the level of the 28 kDa product
[3]
  production of the 14 kDa BDNF: selectively blocks the production of the 14 kDa BDNF

## CNc1ccc2oc(C[C@H]3O[C@@]4(CC[C@H]3C)O[C@H]([C@H](C)C(=O)c3ccc[nH]3)[C@H](C)C[C@H]4C)nc2c1C(=O)O [Peptide A23187]
[2]; [15]
  level of the 28 kDa BDNF product: abolished
[3]; [15]
  production of the 14 kDa BDNF: abolished

B1: BTMD-SKI-1 (protein)
chain: RAIPRQVAQTLQADVLWQMGYTGANVRVAVFDTGLSEKHPHFKNVKERTNWTNERTLDDGLGHGTFVAGVIASMRECQGFAPDAELHIFRVFTNNQVSYTSWFLDAFNYAILKKIDVLNLSIGGPDFMDHPFVDKVWELTANNVIMVSAIGNDGPLYGTLNNPADQMDVIGVGGIDFEDNIARFSSRGMTTWELPGGYGRMKPDIVTYGAGVRGSGVKGGCRALSGTSVASPVVAGAVTLLVSTVQKRELVNPASMKQALIASARRLPGVNMFEQGHGKLDLLRAYQILNSYKPQASLSPSYIDLTECPYMWPYCSQPIYYGGMPTVVNVTILNGMGVTGRIVDKPDWQPYLPQNGDNIEVAFSYSSVLWPWSGYLAISISVTKKAASWEGIAQGHVMITVASPAETESKNGAEQTSTVKLPIKVKIIPTPPRSKRVLWDQYHNLRYPPGYFPRDNLRMKNDPLDWNGDHIHTNFRDMYQHLRSMGYFVEVLGAPFTCFDASQYGTLLMVDSEEEYFPEEIAKLRRDVDNGLSLVIFSDWYNTSVMRKVKFYDENTRQWWMPDTGGANIPALNELLSVWNMGFSDGLYEGEFTLANHDMYYASGCSIAKFPEDGVVITQTFKDQGLEVLKQETAVVENVPILGLYQIPAEGGGRIVLYGDSNCLDDSHRQKDCFWLLDALLQYTSYGVTPPSLSHSGNRQRPPSGAGSVTPERMEGNHLHRYSKVLEAHLGDPKPRPLPACPRLSWAKPQPLNETAPSNLWKHQKLLSIDLDKVVLPNFRSNRPQVRPLSPGESGAWDIPGGIMPGRYNQEHHHHHH
[4]
  Km(app): 124 µM
  Vmax(app): 0.5 nmol/h
  Vmax(app)/Km(app): 0.004 h^-1L^-1
  cleavage of synthetic peptide (RP-HPLC, MALDI-TOF): The expected cleavages were confirmed and did not occur using WT-/empty vector-derived media
[5]
  cleavage of synthetic peptide: ^1No cleavage detected even with a 10-fold excess of enzyme.
[6]
  Hydrolysis of SREBP-2 peptide (% of control) at 0.01 mM cystatin: 100 % of control
[7]
  cleavage of synthetic peptide: ^1No cleavage detected even with a 10-fold excess of enzyme.
[8]
  cleavage of synthetic peptide at K137↓: the PQRKVFRSLK^137↓YAESD (SEQ. ID. NO. 45) cleavage was only seen in SKI-1-containing medium
[9]
  Km(app): 17 µM
  Vmax(app): 0.4 nmol/h
  Vmax(app)/Km(app): 0.023 h^-1L^-1
  Vmax(app)/Km(app) relative to peptides I and II: 5-10-fold higher than those obtained with peptides I and II
  cleavage of synthetic peptide: this change significantly improved the processing of these peptides
[10]
  Km(app): 109 µM
  Vmax(app): 1.1 nmol/h
  Vmax(app)/Km(app): 0.01 h^-1L^-1
  catalytic efficiency relative to peptide IV: caused a 4-fold reduction in catalytic efficiency
  cleavage of synthetic peptide: this change significantly improved the processing of these peptides
  difference in Vmax(app)/Km(app) between peptides IV and V: 2 fold
[11]
  cleavage of synthetic peptide: ^2Cleavage detected but not attributable to SKI-1.
[12]
  cleavage of synthetic peptide (RP-HPLC, mass spectrometry): the only one with detectable cleavage by SKI-1-containing concentrated medium ... was peptide III
[13]
  Km(app): 169 µM
  Vmax(app): 0.4 nmol/h
  Vmax(app)/Km(app): 0.002 h^-1L^-1
  cleavage of synthetic peptide (RP-HPLC, MALDI-TOF): The expected cleavages were confirmed and did not occur using WT-/empty vector-derived media
[14]
  Hydrolysis of SREBP-2 peptide (% of control) at 0.5 mg/ml SBTI: 100 % of control
